Experimental data published in patent publication CN113912709A (SHENZHEN NATIONAL CLINICAL RES CENTER FOR INFECTIOUS …, dated 2022).

What was measured:
[1] = biological target: SARS-CoV-2 wild-type spike protein (on pseudovirus) (SARS-CoV-2, UniProt P0DTC2 14-1273); test: cell-based or functional assay
[2] = biological target: T1, SARS-CoV-2 wild-type RBD protein (SARS-CoV-2, UniProt P0DTC2 319-541); test: SPR, Biacore 8K, RBD on CM5 chip, IgG injected, 1:1 model
T1 construct: domain: RBD

Binder	假病毒中和试验 IC50 [1] [µg/mL]	Kd [2] [nM]
VacW-209 (antibody, V domains shown) VH: QVQLVESGGGVVQPGRSLRLSCAASGFTFSSIAMHWVRQAPGKGLEWVAVMSFDGSIKYYGDSVKGRFTISRDNSKSTLYLQMNSLRAEDTAVYYCARGVQGYYDRSGYYNLDYNYGMDVWGQGTTVTVSS VL: QSVLTQPPSVSGAPGQRVTISCTGSSSNIGAGYDVHWYQQLPGTAPKLLIYGNSNRPSGVPDRFSGSKSGTSASLAITGLQAEDEADYYCQSYDSSLSGWVFGGGTKLTVL	0.03	0.0113
VacW-105 (antibody, V domains shown) VH: QVQLVQSGAEVKKPGSSVKVSCKASGGTFRSYTISWVRQAPGQGLEWMGRILPILGIANYAQKFQGRVTITADKSTSTAYMELSSLRSEDTAVYYCARVTGAPVESAAWFDPWGQGTLVTVSS VL: not shown		1.64
VacW-201 (antibody, V domains shown) VH: EVQLVESGGGLVQPGGSLRLSCAASGFTFSSYWMNWVRQAPGKGLEWVANIKQDGSEKYYVDSVKGRFTISRDNAKNSLYLQMNSLRAEDTAVYYCARMEYPYGGVDYWGQGTLVTVSS VL: NFMLTQPHSVSESPGKTVTISCTGSSGSIASNYVQWYQQRPGSAPTTVIYEDNQRPSGVPDRFSGSIDSSSNSASLTISGLKTEDEADYYCQSYDSSNRNWVFGGGTKLTVL		0.88
VacW-215 (antibody, V domains shown) VH: EVQLVESGGGLIQPGGSLRLSCAASGFTVSSNYMSWVRQAPGKGLEWVSVIYSGGSTYYADSVKGRFTISRDNSKNTLYLQMNSLRAEDTAVYYCARSTWLRGGFDYWGQGTLVTVSS VL: NFMLTQPHSVSESPGKTVTISCTGSSGSIASNYVQWYQQRPGSAPTTVIYEDNQRPSGVPDRFSGSIDSSSNSASLTISGLKTEDEADYYCQSYDSSNHFYVFGTGTKVTVL		0.405
VacW-212 (antibody, V domains shown) VH: EVQLVESGGGLVQPGGSLRLSCAASGFTFSSYWMNWVRQAPGKGLEWVANIKQDESEKYYVDSVKGRFTISRDNAKNSLFLQMNSLRVEDTAVYYCARMEYPYGGIDYWGQGTLVTVSA VL: NFMLTQPHSVSESPGKTVTISCTGSSGSIASNYVQWYQQRPGSAPTTVIYEDNQRPSGVPDRFSGSIDSSSNSASLTISGLKTEDEADYYCQSYDSSNRNWVFGGGTKLTVL		0.653
VacW-138 (antibody, V domains shown) VH: not shown VL: AIQLTQSPFSLSASVGDRVTITCRASQGISSALAWYQQKPGKAPKLLIYDASSLESGVPSRFSGSGSGTDFTLTISSLQPEDFATYFCQQVDTYQFTFGPGTKVDIK		1.1
